Target: T1, recombinant mouse TNF-α (mouse), P06804
T1 chain: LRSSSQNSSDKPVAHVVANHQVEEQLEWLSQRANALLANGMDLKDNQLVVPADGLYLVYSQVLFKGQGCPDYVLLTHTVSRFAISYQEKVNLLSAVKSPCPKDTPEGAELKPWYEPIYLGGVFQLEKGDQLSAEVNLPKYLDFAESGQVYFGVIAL
Test: cross-linking; 100 ng recombinant TNF-α incubated 1 h at 37 °C with different concentrations of DMSO (or without: cross-linked control), cross-linked with 4.8 mM BS3 for 30 min at room temperature, stopped with 1/10 volume 1 M Tris-HCl pH 7.5; SDS-PAGE and Western blot with anti-TNF-α antibody
Conditions: remark: other sources report otherwise

stoichiometry N: 3
B1: recombinant mouse TNF-α, P06804 80-235 (ligand)
chain: LRSSSQNSSDKPVAHVVANHQVEEQLEWLSQRANALLANGMDLKDNQLVVPADGLYLVYSQVLFKGQGCPDYVLLTHTVSRFAISYQEKVNLLSAVKSPCPKDTPEGAELKPWYEPIYLGGVFQLEKGDQLSAEVNLPKYLDFAESGQVYFGVIAL

Reference: paper PMC7763846
